Measurements as given in patent publication US20090075921A1, “Bone/joint disease sensitivity gene and use thereof” (Riken, priority 2004, published 2009).

Key:
[1] = test system: ATDC5 cells; test: MTT assay of ATDC5 cell growth; type: cell-based, mouse; details: added alone, medium 1-2
Procedure: ATDC5 was inoculated to a 12-well plate at 0.4×10^5 cells/well, and cultured using the medium 1-2 described in Example 19 for 24 hours, after which asporin and bFGF were added, and MTT assay was performed over time as described below. Specifically, the medium was removed by suction, the 1 mg/ml MTT reagent (DOJINDO) dissolved in DMEM/F12 was added at 1 ml/well, and the plate was incubated in a CO2 incubator for 1 hour. The supernatant was removed by suction, a Lysis reagent (86% isopropanol, 40 mM HCl, 1% SDS) was added to the plate at 0.2 ml/well, and extraction was performed at room temperature for 5 minutes. This extract was transferred to a 96-well plate, and OD550 was measured using a plate reader.

[2] = biological target: TGF-β1 (Homo sapiens, UniProt P01137); test: Binding assay of asporin and TGF-β by pull-down assay method; details: S-Protein agarose precipitate, Western blotting
Sequence of TGF-β1 (P01137 279-390 limits assumed, species assumed): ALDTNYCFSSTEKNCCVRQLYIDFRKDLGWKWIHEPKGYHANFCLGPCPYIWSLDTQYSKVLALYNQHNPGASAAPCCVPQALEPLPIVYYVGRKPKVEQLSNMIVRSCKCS
Procedure: With the pET29b-ASP13 and pET29b-ASP14 thus prepared as the templates, S-tagged human asporin D13 and D14 were prepared by performing a reaction in the presence of Transcend™ Biotin-Lysyl-tRNA using TNT Quick Coupled Transcription/Translation Systems (Promega). A reaction mixture comprising S-tagged human asporin D13 or D14 (10 μl) and TGF-β1 (0.1 μg) were mixed in buffer A (50 mM Tris (pH 7.5), 150 mM NaCl, 1% Triton X-100, complete protease inhibitor cocktail tablets (Roche)) at 4° C. for 1 hour, S-Protein agarose (Novagen, 12.5 μl) was added, and the mixture was further incubated at room temperature for 30 minutes. The precipitated resin was washed with buffer A five times, after which SDS-PAGE was performed under reducing conditions. S-tagged human asporin in the precipitate was detected by Western blotting using streptavidin-HRP (R&D Systems), and TGF-β1 was detected by Western blotting using biotinylated anti-TGF-β1 antibody (Genzyme). As a result of an examination of the binding of human asporin and TGF-β by the method described above, a band of TGF-β1 was detected in the precipitate comprising S-tagged human asporin D13 or D14 (FIG. 17).
Using the recombinant mouse asporin purified by the method described in Example 31, its capability of binding with TGF-β1 was examined by the method described in Example 22 (pull-down assay method); as a result, it was confirmed that TGF-β1 was detected in the precipitate of purified mouse asporin (FIG. 26).

[3] = test system: type II collagen; test: Binding assay of asporin and collagen (type II); details: 37° C., 5 hours, precipitate, Western blotting
Sequence of type II collagen (P02458 182-1241 limits assumed): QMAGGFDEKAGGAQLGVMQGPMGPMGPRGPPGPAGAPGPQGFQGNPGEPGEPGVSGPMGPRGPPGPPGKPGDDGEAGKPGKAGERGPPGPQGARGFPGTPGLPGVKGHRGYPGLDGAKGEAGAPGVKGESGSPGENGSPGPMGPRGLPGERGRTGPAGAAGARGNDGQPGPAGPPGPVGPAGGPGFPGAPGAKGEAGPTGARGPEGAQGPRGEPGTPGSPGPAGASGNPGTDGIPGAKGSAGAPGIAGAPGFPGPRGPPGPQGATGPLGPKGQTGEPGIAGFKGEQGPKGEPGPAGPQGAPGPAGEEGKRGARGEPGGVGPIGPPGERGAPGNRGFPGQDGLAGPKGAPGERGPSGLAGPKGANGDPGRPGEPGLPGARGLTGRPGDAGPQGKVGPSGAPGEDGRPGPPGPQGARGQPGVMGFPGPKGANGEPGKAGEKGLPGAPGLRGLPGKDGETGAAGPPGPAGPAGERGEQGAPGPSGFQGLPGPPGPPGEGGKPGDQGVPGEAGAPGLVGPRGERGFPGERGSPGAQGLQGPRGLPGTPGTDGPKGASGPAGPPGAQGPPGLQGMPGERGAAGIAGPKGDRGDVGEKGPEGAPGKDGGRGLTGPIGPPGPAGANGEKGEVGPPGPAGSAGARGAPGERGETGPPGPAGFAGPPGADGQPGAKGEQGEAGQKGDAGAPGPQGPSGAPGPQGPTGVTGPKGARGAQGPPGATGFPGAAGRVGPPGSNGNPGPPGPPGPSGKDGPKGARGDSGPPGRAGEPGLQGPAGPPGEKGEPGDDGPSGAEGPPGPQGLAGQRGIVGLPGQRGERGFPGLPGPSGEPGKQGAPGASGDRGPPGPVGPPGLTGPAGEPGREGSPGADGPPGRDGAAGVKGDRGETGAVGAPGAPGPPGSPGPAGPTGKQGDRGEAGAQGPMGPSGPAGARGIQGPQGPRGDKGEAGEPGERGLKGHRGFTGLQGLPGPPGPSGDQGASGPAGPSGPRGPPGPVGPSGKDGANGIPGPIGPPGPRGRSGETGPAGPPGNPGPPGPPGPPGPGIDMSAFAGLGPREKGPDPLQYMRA
Procedure: (§1) A binding assay of asporin and collagen was performed by the method described below. As a collagen an acid-soluble type II collagen solution (KOKEN, 3 mg/ml) and an acid-soluble type I collagen solution (1-C: Nitta Gelatin Inc., 3 mg/ml) were used. A reaction mixture comprising 5 μl of an acid-soluble collagen solution (3 mg/ml), 5 μl of an S-tagged human asporin reaction mixture prepared by the method described in Example, and 90 μl of PBS, was prepared, and incubated at 37° C. for 5 hours. This reaction mixture was centrifuged (10,000 rpm, 5 minutes, 4° C.), after which the precipitate was washed with PBS three times. The washed precipitate was dissolved in 20 μl of a sample buffer (comprising 1 μl of 2-mercaptoethanol), after which SDS-PAGE was performed, and Western blotting was performed using streptavidin-HRP. As a result, S-tagged human asporin D13 and D14 bound to both type II collagen and type I collagen (FIG. 21a).

[4] = biological target: T1, type I collagen (Homo sapiens, UniProt P02452+P08123); test: Binding assay of asporin and collagen (type I); details: 37° C., 5 hours, precipitate, Western blotting
T1 construct: purchased Nitta Gelatin Inc. 1-C
T1 sequence (P02452 162-1218 limits assumed): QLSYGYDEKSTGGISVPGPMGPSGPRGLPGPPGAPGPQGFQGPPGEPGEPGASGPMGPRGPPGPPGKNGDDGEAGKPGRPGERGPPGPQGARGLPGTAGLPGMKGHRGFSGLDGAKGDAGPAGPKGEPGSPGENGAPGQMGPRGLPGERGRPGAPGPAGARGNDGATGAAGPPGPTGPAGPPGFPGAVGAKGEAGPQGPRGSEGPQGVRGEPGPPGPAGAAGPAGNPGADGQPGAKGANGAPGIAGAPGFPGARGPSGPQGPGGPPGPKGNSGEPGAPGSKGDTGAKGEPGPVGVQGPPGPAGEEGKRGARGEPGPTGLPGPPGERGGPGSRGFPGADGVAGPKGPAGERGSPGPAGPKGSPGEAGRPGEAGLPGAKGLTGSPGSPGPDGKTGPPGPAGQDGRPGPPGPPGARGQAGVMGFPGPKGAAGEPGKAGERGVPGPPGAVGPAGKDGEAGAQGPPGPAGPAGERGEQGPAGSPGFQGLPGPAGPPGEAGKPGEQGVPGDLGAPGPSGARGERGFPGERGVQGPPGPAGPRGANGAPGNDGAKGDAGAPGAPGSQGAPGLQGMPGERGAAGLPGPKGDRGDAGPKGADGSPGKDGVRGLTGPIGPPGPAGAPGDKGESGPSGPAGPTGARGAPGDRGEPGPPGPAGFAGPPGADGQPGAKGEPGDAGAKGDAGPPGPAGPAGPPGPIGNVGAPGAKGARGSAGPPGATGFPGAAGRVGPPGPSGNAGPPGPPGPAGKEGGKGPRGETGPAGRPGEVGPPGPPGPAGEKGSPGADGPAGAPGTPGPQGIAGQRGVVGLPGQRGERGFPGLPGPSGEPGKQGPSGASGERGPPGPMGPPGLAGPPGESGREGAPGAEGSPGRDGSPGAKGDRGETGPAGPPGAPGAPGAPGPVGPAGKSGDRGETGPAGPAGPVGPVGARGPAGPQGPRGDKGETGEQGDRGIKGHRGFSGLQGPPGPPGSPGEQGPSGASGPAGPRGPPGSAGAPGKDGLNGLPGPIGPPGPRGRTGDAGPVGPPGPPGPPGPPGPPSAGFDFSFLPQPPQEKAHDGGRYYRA
T1 sequence (P08123 80-1119 limits assumed): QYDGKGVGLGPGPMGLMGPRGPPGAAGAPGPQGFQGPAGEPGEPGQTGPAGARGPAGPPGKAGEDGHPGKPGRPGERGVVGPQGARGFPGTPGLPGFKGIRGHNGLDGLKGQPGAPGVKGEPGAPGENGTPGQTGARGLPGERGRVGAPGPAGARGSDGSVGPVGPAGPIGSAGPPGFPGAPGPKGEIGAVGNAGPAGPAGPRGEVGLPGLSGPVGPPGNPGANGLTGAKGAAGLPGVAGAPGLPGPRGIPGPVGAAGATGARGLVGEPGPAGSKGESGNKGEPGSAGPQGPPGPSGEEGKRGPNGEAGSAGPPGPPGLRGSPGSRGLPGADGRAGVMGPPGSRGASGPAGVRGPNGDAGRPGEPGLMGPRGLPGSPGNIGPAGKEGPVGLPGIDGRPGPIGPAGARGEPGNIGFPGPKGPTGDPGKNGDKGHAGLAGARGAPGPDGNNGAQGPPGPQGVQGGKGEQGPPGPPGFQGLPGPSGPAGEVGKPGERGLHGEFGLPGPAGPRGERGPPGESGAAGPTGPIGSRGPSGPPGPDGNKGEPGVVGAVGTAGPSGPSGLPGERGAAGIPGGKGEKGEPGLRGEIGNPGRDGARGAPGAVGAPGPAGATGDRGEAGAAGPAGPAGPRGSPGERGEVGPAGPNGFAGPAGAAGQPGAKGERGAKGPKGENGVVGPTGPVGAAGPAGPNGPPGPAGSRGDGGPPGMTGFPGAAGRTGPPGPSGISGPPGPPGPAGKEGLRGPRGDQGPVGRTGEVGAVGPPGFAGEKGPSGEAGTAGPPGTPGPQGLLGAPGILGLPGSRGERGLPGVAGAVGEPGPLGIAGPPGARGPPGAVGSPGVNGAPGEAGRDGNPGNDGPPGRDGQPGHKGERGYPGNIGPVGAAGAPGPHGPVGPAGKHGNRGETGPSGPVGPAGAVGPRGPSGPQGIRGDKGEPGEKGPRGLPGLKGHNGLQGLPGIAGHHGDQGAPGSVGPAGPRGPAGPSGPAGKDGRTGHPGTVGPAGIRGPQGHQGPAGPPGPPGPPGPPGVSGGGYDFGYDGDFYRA
Procedure: as §1

[5] = test system: ATDC5 cell lines that transiently express human asporin; test: TGF-β1-stimulated aggrecan and type II collagen gene expression in ATDC5 transiently expressing human asporin; type: cell-based, mouse; details: transient expression
Procedure: ATDC5 cells were inoculated to a 12-well plate at 0.5×10^5 cells/well, and cultured in a medium 1-2 (DMEM/F12 medium containing 5% FBS, ITS (Sigma), penicillin (100 U/ml) and streptomycin (100 μg/ml)). 24 hours later, pcDNA3.1-ASP13 or pcDNA3.1-ASP14 were introduced using FuGENE-6 (Roche), and the cells were cultured for 24 hours. Next, the medium was exchanged with a medium 1-2 containing 0.2% FBS, and the cells were cultured for 12 hours, after which TGF-β1 (10 ng/ml) was added, and the cells were further cultured for 18 hours, after which total RNA extraction, purification, cDNA synthesis, and real-time PCR were performed in the same manner as Example 18. As a result, the elevation of the TGF-β1-stimulated expression levels of the aggrecan and type II collagen genes was suppressed in the ATDC5 cells allowed to transiently express human asporin D13 or D14 compared to mock (FIG. 14).
First, the expression level of the aggrecan gene elevated by TGF-β1 stimulation in mock is written as (AM), and the expression level of the type II collagen gene at the same time is written as (CM). Next, the TGF-β1-stimulated aggrecan gene expression level suppressed by the forced expression of asporin D13 is written as (A13), and the type II collagen gene expression level at the same time is written as (C13). […] Thus, the suppression rate of the TGF-β1-stimulated aggrecan gene expression in the asporin D13 expressing line can be expressed as (A13)/(AM), and the suppression rate of the type II collagen gene expression as (C13)/(CM). Likewise, the suppression rate of the TGF-β1-stimulated aggrecan gene expression in the asporin D14 expressing line can be expressed as (A14)/(AM), and the suppression rate of the type II collagen gene expression as (C14)/(CM). Furthermore, by making a correction by dividing these values by the human asporin mRNA content obtained with TGF-β1 stimulation, the suppression rate of the aggrecan and type II collagen gene expression per human asporin mRNA content were calculated. […]

Molecule | growth of ATDC5 cells (MTT, OD550) [1] | binding to TGF-β1 (pull-down) [2] | binding to type II collagen [3] | binding to type I collagen [4] | suppressive action on the TGF-β1-stimulated expression of COL2A1 compared with D14 [5]
bFGF: growth factor added to ATDC5 cells and coated on microplate [reference compound] | suppressed the growth of ATDC5 cells concentration-dependently | – | – | – | –
S-tagged human asporin D13: mature S-tagged human asporin D13 synthesized cell-free from pET29b-ASP13, lysines biotinylated (protein, left off: small tags and cut ends, mature S-tagged human asporin D13 synthesized cell-free from pET29b-ASP13, lysines biotinylated) DMEDTDDDDDDDDDDDDDEDNSLFPTREPRSHFFPFDLFPMCPFGCQCYSRVVHCSDLGLTSVPTNIPFDTRMLDLQNNKIKEIKENDFKGLTSLYGLILNNNKLTKIHPKAFLTTKKLRRLYLSHNQLSEIPLNLPKSLAELRIHENKVKKIQKDTFKGMNALHVLEMSANPLDNNGIEPGAFEGVTVFHIRIAEAKLTSVPKGLPPTLLELHLDYNKISTVELEDFKRYKELQRLGLGNNKITDIENGSLANIPRVREIHLENNKLKKIPSGLPELKYLQIIFLHSNSIARVGVNDFCPTVPKMKKSLYSAISLFNNPVKYWEMQPATFRCVLSRMSVQLGNFGM | – | bound to TGF-β1 in vitro | bound | bound | –
D16: asporin having D-repeat number of 16, transiently expressed (protein) AKPFFSPSHIALKNMMLKDMEDTDDDDDDDDDDDDDDEDNSLFPTREPRSHFFPFDLFPMCPFGCQCYSRVVHCSDLGLTSVPTNIPFDTRMLDLQNNKIKEIKENDFKGLTSLYGLILNNNKLTKIHPKAFLTTKKLRRLYLSHNQLSEIPLNLPKSLAELRIHENKVKKIQKDTFKGMNALHVLEMSANPLDNNGIEPGAFEGVTVFHIRIAEAKLTSVPKGLPPTLLELHLDYNKISTVELEDFKRYKELQRLGLGNNKITDIENGSLANIPRVREIHLENNKLKKIPSGLPELKYLQIIFLHSNSIARVGVNDFCPTVPKMKKSLYSAISLFNNPVKYWEMQPATFRCVLSRMSVQLGNFGM | – | – | – | – | significantly weaker than that of D14
D17: asporin having D-repeat number of 17, transiently expressed (protein) AKPFFSPSHIALKNMMLKDMEDTDDDDDDDDDDDDDDEDNSLFPTREPRSHFFPFDLFPMCPFGCQCYSRVVHCSDLGLTSVPTNIPFDTRMLDLQNNKIKEIKENDFKGLTSLYGLILNNNKLTKIHPKAFLTTKKLRRLYLSHNQLSEIPLNLPKSLAELRIHENKVKKIQKDTFKGMNALHVLEMSANPLDNNGIEPGAFEGVTVFHIRIAEAKLTSVPKGLPPTLLELHLDYNKISTVELEDFKRYKELQRLGLGNNKITDIENGSLANIPRVREIHLENNKLKKIPSGLPELKYLQIIFLHSNSIARVGVNDFCPTVPKMKKSLYSAISLFNNPVKYWEMQPATFRCVLSRMSVQLGNFGM | – | – | – | – | significantly weaker than that of D14
S-tagged human asporin D14: mature S-tagged human asporin D14 synthesized cell-free from pET29b-ASP14, lysines biotinylated (protein, left off: small tags and cut ends, mature S-tagged human asporin D14 synthesized cell-free from pET29b-ASP14, lysines biotinylated) DMEDTDDDDDDDDDDDDDDEDNSLFPTREPRSHFFPFDLFPMCPFGCQCYSRVVHCSDLGLTSVPTNIPFDTRMLDLQNNKIKEIKENDFKGLTSLYGLILNNNKLTKIHPKAFLTTKKLRRLYLSHNQLSEIPLNLPKSLAELRIHENKVKKIQKDTFKGMNALHVLEMSANPLDNNGIEPGAFEGVTVFHIRIAEAKLTSVPKGLPPTLLELHLDYNKISTVELEDFKRYKELQRLGLGNNKITDIENGSLANIPRVREIHLENNKLKKIPSGLPELKYLQIIFLHSNSIARVGVNDFCPTVPKMKKSLYSAISLFNNPVKYWEMQPATFRCVLSRMSVQLGNFGM | – | bound to TGF-β1 in vitro | bound | bound | –
biglycan: SLRP family proteoglycan used as the negative control for collagen binding (protein, UniProt P21810 38-368, looked up) Biglycan: DEEASGADTSGVLDPDSVTPTYSAMCPFGCHCHLRVVQCSDLGLKSVPKEISPDTTLLDLQNNDISELRKDDFKGLQHLYALVLVNNKISKIHEKAFSPLRKLQKLYISKNHLVEIPPNLPSSLVELRIHDNRIRKVPKGVFSGLRNMNCIEMGGNPLENSGFEPGAFDGLKLNYLRISEAKLTGIPKDLPETLNELHLDHNKIQAIELEDLLRYSKLYRLGLGHNQIRMIENGSLSFLPTLRELHLDNNKLARVPSGLPDLKLLQVVYLHSNNITKVGVNDFCPMGFGVKRAYYNGISLFNNPVPYWEVQPATFRCVTDRLAIQFGNYKK | – | – | did not bind | did not bind | –
